In assay [1] the target is T1, recombinant human TfR (2474-TR, R&D Systems), biotinylated (human, UniProt P02786 89-760, biotinylated with EZ-Link NHS-PEG4-Biotinylation Kit).
T1 construct: Bought protein; also called immobilized recombinant human TfR; biotinylated human TfR
As to the kind of experiment: SPR (Biacore), ratio of the off rates on human TfR at the two pH values; the printed number equals kd at pH 5.5 divided by kd at pH 7.4. As for the experimental part: (§1) E. coli TG1 bacteria were transformed with those plasmids and expressions induced. Crude extracts were prepared and analyzed for binding by flow cytometry on human TfR overexpressing cells. […] Next, off rates of these selected variants were determined on recombinant human TfR by surface plasmon resonance (Biacore, Marlborough, Massachusetts, United States). Biotinylated human TfR was captured on a streptavidin-coated SA sensor chip (Cytiva). Increasing concentrations of nanobodies were sequentially injected in a single cycle at a flow rate of 30 μL/min. The dissociation was monitored for around 20 min. A reference flow was used as a control for non-specific binding and refractive index changes. Several buffer blanks were used for double referencing. Off rates were derived after fitting the experimental data to the 1:1 binding model with the Biacore Evaluation Software.
(§2) Surface Plasmon Resonance (SPR) was used to measure the interaction between VHHs and human or cynomolgus TfR receptor. Human TfR (2474-TR, R&D Systems) and cynomolgus TfR (90253-C07H, Sino Biological) were biotinylated with the EZ-Link NHS-PEG4-Biotinylation Kit (ThermoFischer Scientific) according to the manufacturer instructions. The binding experiments were performed at 25° C. on a Biacore T200 instrument (Cytiva, Uppsala, Sweden) in HBS-EP+ buffer (10 mM HEPES, 150 mM NaCl, 3 mM EDTA and 0.05% v/v Surfactant P20). Biotinylated human TfR and cynomolgus TfR were captured on a SA sensor chip (Cytiva) at a density of around 250 RU. Increasing concentrations of VHHs were sequentially injected in one single cycle at a flow rate of 30 μl/min. The dissociation was monitored for 20 min. […] A reference flow was used as a control for non-specific binding and refractive index changes. Several buffer blanks were used for double referencing. Binding affinities (KD) and kinetic rate constants (kₒₙ, koff) were derived after fitting the experimental data to the 1:1 binding model with the Biacore T200 Evaluation Software 3.1 using the single cycle kinetic procedure.
Background: Surface plasmon resonance follows binding to a sensor surface in real time, without labels.

For assay [2], the target named is T1, recombinant human TfR (2474-TR, R&D …). As to the kind of experiment: SPR (Biacore), biotinylated human TfR captured on an SA chip, VHH injected, 1:1 dissociation fit, pH 5.5. As for the experimental part:
as §1, §2

The target is the same in assay [3]. Nature of the assay: SPR (Biacore), biotinylated human TfR captured on an SA chip, VHH injected, 1:1 dissociation fit, pH 7.4. As to the method:
as §1, §2

For assay [4] the target is unchanged. Nature of the assay: SPR (Biacore), ratio of the off rates on human TfR at the two pH values; the printed number equals kd at pH 5.5 divided by kd at pH 7.4. As to the method:
as §1, with “In brief, DNA was synthesized by Genscript (Piscataway, New Jersey, United States) and cloned into an E. coli compatible expression plasmid according to standard methods. E.” for “E.”
The source holds these as a separate data set.

The target is the same in assay [5]. Nature of the assay: SPR (Biacore), biotinylated human TfR captured on an SA chip, VHH injected, 1:1 dissociation fit, pH 5.5. As for the experimental part:
as §1, with “In brief, DNA was synthesized by Genscript (Piscataway, New Jersey, United States) and cloned into an E. coli compatible expression plasmid according to standard methods. E.” for “E.”
The source holds these as a separate data set.

The target is the same in assay [6]. As to the kind of experiment: SPR (Biacore), biotinylated human TfR captured on an SA chip, VHH injected, 1:1 dissociation fit, pH 7.4. As for the experimental part: as §1, with “In brief, DNA was synthesized by Genscript (Piscataway, New Jersey, United States) and cloned into an E. coli compatible expression plasmid according to standard methods. E.” for “E.”
The source holds these as a separate data set.

Where two headings read alike, the source gives them in different places.

The term koff denotes the rate constant with which the complex falls apart.

T1 sequence (P02786 89-760 limits assumed): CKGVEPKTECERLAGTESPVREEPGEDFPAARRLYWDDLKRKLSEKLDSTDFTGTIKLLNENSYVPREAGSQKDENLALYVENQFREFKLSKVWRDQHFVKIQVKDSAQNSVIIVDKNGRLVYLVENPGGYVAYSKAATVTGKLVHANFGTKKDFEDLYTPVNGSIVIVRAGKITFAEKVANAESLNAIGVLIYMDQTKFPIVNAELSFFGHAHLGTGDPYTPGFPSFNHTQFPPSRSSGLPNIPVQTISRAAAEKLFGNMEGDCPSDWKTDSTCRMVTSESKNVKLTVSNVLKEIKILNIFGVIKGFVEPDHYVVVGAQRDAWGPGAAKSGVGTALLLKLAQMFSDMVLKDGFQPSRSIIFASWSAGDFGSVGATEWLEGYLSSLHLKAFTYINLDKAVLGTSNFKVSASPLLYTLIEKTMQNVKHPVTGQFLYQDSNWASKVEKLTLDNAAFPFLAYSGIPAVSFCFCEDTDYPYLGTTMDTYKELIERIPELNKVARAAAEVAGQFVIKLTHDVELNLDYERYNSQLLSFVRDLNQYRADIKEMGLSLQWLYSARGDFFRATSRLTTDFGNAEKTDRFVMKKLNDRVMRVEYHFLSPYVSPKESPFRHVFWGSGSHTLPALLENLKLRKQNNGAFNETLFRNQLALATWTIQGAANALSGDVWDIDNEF

B1: BBB00736 (VHH)
VHH: EVQLVESGGGLVQAGGSLRLSCAASGSIFSINAMGWYRQAPGKQRELVAVITSGGSTIYADSVKGRFTISRDNAENTVYLQMNSLRPEDTAVYYCNAHVGLKVPTIQELSLGFGSWGQGTLVTVSS
notes: also called variant of BBB00515
B1: the “off-rate ratio kd pH5.5/kd pH7.4” value in assay [1] came out at 2.35. The koff in assay [2] amounted to 0.0183 s⁻¹; in assay [3], 0.00782 s⁻¹.

B2: BBB00756 (VHH)
VHH: EVQLVESGGGLVQAGGSLRLSCAASGSIFSINAMGWYRQAPGKQRELVAVITSGGSTIYADSVKGRFTISRDNAENTVYLQMNSLRPEDTAVYYCNAHHGLKVPTIQELSLGFGSWGQGTLVTVSS
notes: also called histidine mutant of BBB00533
Take B2: in assay [1], the “off-rate ratio kd pH5.5/kd pH7.4” value came out at 2.58. Also, the off-rate constant (koff) was 0.019 s⁻¹ in assay [2] and 0.00735 s⁻¹ in assay [3].

B3: BBB00739 (VHH)
VHH: EVQLVESGGGLVQAGGSLRLSCAASGSHFSINAMGWYRQAPGKQRELVAVITSGGSTIYADSVKGRFTISRDNAENTVYLQMNSLRPEDTAVYYCNAHVGLKVPTIQELSLGFGSWGQGTLVTVSS
notes: as for B2
For the molecule B3, in assay [1], the “off-rate ratio kd pH5.5/kd pH7.4” value is 2.93. The koff in assay [2] turned out to be 0.0223 s⁻¹; in assay [3], 0.00761 s⁻¹.

B4: BBB00737 (VHH)
VHH: EVQLVESGGGLVQAGGSLRLSCAASHSIFSINAMGWYRQAPGKQRELVAVITSGGSTIYADSVKGRFTISRDNAENTVYLQMNSLRPEDTAVYYCNAHVGLKVPTIQELSLGFGSWGQGTLVTVSS
notes: Histidine mutant
For B4, the “off-rate ratio kd pH5.5/kd pH7.4” value in assay [1] was found to be 2.32. Further, the dissociation rate constant (koff) in assay [2] is 0.02 s⁻¹; in assay [3], 0.00861 s⁻¹.

B5: BBB00758 (VHH)
VHH: EVQLVESGGGLVQAGGSLRLSCAASGSIFSINAMGWYRQAPGKQRELVAVITSGGSTIYADSVKGRFTISRDNAENTVYLQMNSLRPEDTAVYYCNAHVGHKVPTIQELSLGFGSWGQGTLVTVSS
notes: as for B2
Consider B5, for which the “off-rate ratio kd pH5.5/kd pH7.4” value in assay [1] was determined as 7.24. The off-rate (koff) in assay [2] amounted to 0.0657 s⁻¹; in assay [3] it was 0.00908 s⁻¹.

B6: BBB00745 (VHH)
VHH: EVQLVESGGGLVQAGGSLRLSCAASGSIFSINAHGWYRQAPGKQRELVAVITSGGSTIYADSVKGRFTISRDNAENTVYLQMNSLRPEDTAVYYCNAHVGLKVPTIQELSLGFGSWGQGTLVTVSS
notes: Histidine mutant
Regarding B6, in assay [1], the “off-rate ratio kd pH5.5/kd pH7.4” value came to 2.08. Moreover, the dissociation rate constant (koff) in assay [2] was determined as 0.0161 s⁻¹; in assay [3], 0.00773 s⁻¹.

B7: BBB00740 (VHH)
VHH: EVQLVESGGGLVQAGGSLRLSCAASGSIHSINAMGWYRQAPGKQRELVAVITSGGSTIYADSVKGRFTISRDNAENTVYLQMNSLRPEDTAVYYCNAHVGLKVPTIQELSLGFGSWGQGTLVTVSS
notes: Histidine mutant
B7: the “off-rate ratio kd pH5.5/kd pH7.4” value in assay [1] turned out to be 2.32. Moreover, the koff in assay [2] was 0.0221 s⁻¹; in assay [3], 0.00954 s⁻¹.

B8: BBB00741 (VHH)
VHH: EVQLVESGGGLVQAGGSLRLSCAASGSIFHINAMGWYRQAPGKQRELVAVITSGGSTIYADSVKGRFTISRDNAENTVYLQMNSLRPEDTAVYYCNAHVGLKVPTIQELSLGFGSWGQGTLVTVSS
notes: as for B2
As for B8, the “off-rate ratio kd pH5.5/kd pH7.4” value in assay [1] was determined as 2.74. Moreover, the values for the off-rate (koff) in assay [2] and in assay [3] were 0.0151 s⁻¹ and 0.00551 s⁻¹, respectively.

B9: BBB00763 (VHH)
VHH: EVQLVESGGGLVQAGGSLRLSCAASGSIFSINAMGWYRQAPGKQRELVAVITSGGSTIYADSVKGRFTISRDNAENTVYLQMNSLRPEDTAVYYCNAHVGLKVPTHQELSLGFGSWGQGTLVTVSS
notes: as for B2
Take B9: the “off-rate ratio kd pH5.5/kd pH7.4” value in assay [1] worked out at 2.36. Also, the koff amounted to 0.022 s⁻¹ in assay [2] and 0.00933 s⁻¹ in assay [3].

B10: BBB00764 (VHH)
VHH: EVQLVESGGGLVQAGGSLRLSCAASGSIFSINAMGWYRQAPGKQRELVAVITSGGSTIYADSVKGRFTISRDNAENTVYLQMNSLRPEDTAVYYCNAHVGLKVPTIHELSLGFGSWGQGTLVTVSS
notes: Histidine mutant
B10: in assay [1], the “off-rate ratio kd pH5.5/kd pH7.4” value is 2.02. Further, the off-rate constant (koff) is 0.0206 s⁻¹ in assay [2] and 0.0102 s⁻¹ in assay [3].

B11: BBB00738 (VHH)
VHH: EVQLVESGGGLVQAGGSLRLSCAASGHIFSINAMGWYRQAPGKQRELVAVITSGGSTIYADSVKGRFTISRDNAENTVYLQMNSLRPEDTAVYYCNAHVGLKVPTIQELSLGFGSWGQGTLVTVSS
notes: Histidine mutant
Take B11: the “off-rate ratio kd pH5.5/kd pH7.4” value in assay [1] came to 1.86. Moreover, the koff in assay [2] was determined as 0.0171 s⁻¹; in assay [3] it was 0.00918 s⁻¹.

B12: BBB00710 (VHH)
VHH: EVQLVESGGGSVQPGGSLRLSCTASGRTFNYAMGWFRQAPGKNREFVATIDWKDGHSYYLDSVRGRFTIERDDAKNTVYLQMNSLRPEDAAVYTCAVGDGDYCSTYTCAAEVEYDYWGQGTLVTVSS
notes: also called histidine mutant of BBB00515
In the case of B12, the “off-rate ratio kd pH5.5/kd pH7.4” value in assay [4] stood at 2.84. Moreover, the values for the off-rate constant (koff) in assay [5] and in assay [6] were 0.0126 s⁻¹ and 0.00444 s⁻¹, respectively.

B13: BBB00729 (VHH)
VHH: EVQLVESGGGSVQPGGSLRLSCTASGRTFNYAMGWFRQAPGKNREFVATIDWKDGSSYYLDSVRGRFTIERDDAKNTVYLQMNSLRPEDAAVYTCAVGDGDYCSTYTCAAEVEYDHWGQGTLVTVSS
notes: as for B12
As for B13, in assay [4], the “off-rate ratio kd pH5.5/kd pH7.4” value came out at 2.01. The off-rate constant (koff) is 0.0113 s⁻¹ in assay [5] and 0.00562 s⁻¹ in assay [6].

B14: BBB00718 (VHH)
VHH: EVQLVESGGGSVQPGGSLRLSCTASGRTFNYAMGWFRQAPGKNREFVATIDWKDGSSYYLDSVRGRFTIERDDAKNTVYLQMNSLRPEDAAVYTCAVGDGDYCHTYTCAAEVEYDYWGQGTLVTVSS
notes: as for B12
Regarding B14, the “off-rate ratio kd pH5.5/kd pH7.4” value in assay [4] amounted to 2.21. For the same molecule, the koff worked out at 0.0154 s⁻¹ in assay [5] and 0.00695 s⁻¹ in assay [6].

B15: BBB00716 (VHH)
VHH: EVQLVESGGGSVQPGGSLRLSCTASGRTFNYAMGWFRQAPGKNREFVATIDWKDGSSYYLDSVRGRFTIERDDAKNTVYLQMNSLRPEDAAVYTCAVGDGHYCSTYTCAAEVEYDYWGQGTLVTVSS
notes: Histidine mutant
As for B15, in assay [4], the “off-rate ratio kd pH5.5/kd pH7.4” value worked out at 1.7. For the same molecule, the off-rate constant (koff) in assay [5] came to 0.00904 s⁻¹; in assay [6] it was 0.00533 s⁻¹.

B16: BBB00719 (VHH)
VHH: EVQLVESGGGSVQPGGSLRLSCTASGRTFNYAMGWFRQAPGKNREFVATIDWKDGSSYYLDSVRGRFTIERDDAKNTVYLQMNSLRPEDAAVYTCAVGDGDYCSHYTCAAEVEYDYWGQGTLVTVSS
notes: Histidine mutant
For B16, the “off-rate ratio kd pH5.5/kd pH7.4” value in assay [4] came to 1.55. The off-rate (koff) in assay [5] is 0.0091 s⁻¹; in assay [6], 0.00586 s⁻¹.

B17: BBB00728 (VHH)
VHH: EVQLVESGGGSVQPGGSLRLSCTASGRTFNYAMGWFRQAPGKNREFVATIDWKDGSSYYLDSVRGRFTIERDDAKNTVYLQMNSLRPEDAAVYTCAVGDGDYCSTYTCAAEVEYHYWGQGTLVTVSS
notes: Histidine mutant
For the molecule B17, in assay [4], the “off-rate ratio kd pH5.5/kd pH7.4” value worked out at 1.62. Further, the koff in assay [5] is 0.0127 s⁻¹; in assay [6], 0.00787 s⁻¹.

Source of the values: US20260274981A1 (VIB VZW, published 2026).
